One molecule from US20250381241A1 (Dana-Farber, published 2025) can be followed below.

In this assay the target is T1, WDR43 (human, UniProt Q15061 1-677, limits assumed).
T1 construct: Called a core transcriptional assembly factor at TSS; Endogenous protein from lysate
T1 sequence (looked up): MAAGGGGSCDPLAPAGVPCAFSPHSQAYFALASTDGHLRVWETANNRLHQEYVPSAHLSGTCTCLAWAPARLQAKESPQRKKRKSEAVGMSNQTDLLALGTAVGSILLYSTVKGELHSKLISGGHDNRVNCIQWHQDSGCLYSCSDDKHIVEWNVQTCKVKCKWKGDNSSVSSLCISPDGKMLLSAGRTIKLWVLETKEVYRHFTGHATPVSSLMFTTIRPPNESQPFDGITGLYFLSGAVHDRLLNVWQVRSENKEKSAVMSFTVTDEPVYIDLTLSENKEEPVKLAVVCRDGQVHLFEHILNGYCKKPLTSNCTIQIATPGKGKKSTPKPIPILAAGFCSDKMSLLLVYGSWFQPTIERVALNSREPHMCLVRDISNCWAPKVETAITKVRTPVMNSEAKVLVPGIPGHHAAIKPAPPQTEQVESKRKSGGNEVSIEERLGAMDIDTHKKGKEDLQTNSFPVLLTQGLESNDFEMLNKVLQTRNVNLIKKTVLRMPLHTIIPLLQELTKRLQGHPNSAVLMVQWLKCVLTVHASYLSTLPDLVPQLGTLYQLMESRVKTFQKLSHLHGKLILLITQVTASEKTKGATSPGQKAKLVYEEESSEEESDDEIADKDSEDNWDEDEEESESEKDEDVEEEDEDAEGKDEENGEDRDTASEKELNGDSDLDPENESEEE
The experiment in a line: co-immunoprecipitation of ectopically expressed HA-tagged RIOK2 with monoclonal anti-HA antibody beads, then LC-MS/MS; spectral counts normalised to the immunoprecipitated HA-RIOK2, fold change with respect to WT. As for the experimental part:
For collection of cellular lysates, lysis was similarly performed as described above. 5% of the supernatant was saved as Input, and pre-washed monoclonal anti-HA antibody tagged-agarose beads slurry (A2095, Sigma Aldrich) was added to the rest of the supernatant and incubated at 4° C. on a rocker O/N. The beads were washed with RIPA lysis buffer, resuspended in 2× laemmli buffer, boiled at 95° C. for 10 minutes, and immediately loaded for SDS-PAGE separation. Electrophoresis was performed until the proteins ran 1/6th of the entire gel size. The gel was Coomassie stained for 1 h at 25° C., de-stained at 4° C. O/N, and were cut with sterile blades, washed with MS-grade acetonitrile solution and submitted for Mass Spectrometry analysis at BIDMC Mass Spectrometry Core. […]
Gel separated protein samples were reduced with 55 mM DTT, alkylated with 10 mM iodoacetamide (Sigma-Aldrich), and digested O/N with TPCK modified trypsin/LysC (Promega) at pH=8.3. […] 3 μL of the digested protein samples were analyzed in positive ion mode via microcapillary tandem mass spectrometry (LC-MS/MS) using a high resolution hybrid QExactive HF Orbitrap Mass Spectrometer (Thermo Fisher Scientific) via HCD with data-dependent analysis (DDA) with 1 MS1 scan followed by 8 MS2 scans per cycle (Top 8). […]

B1: ΔTAD2 (enzyme, not shown: small tags and cut ends)
chain: MGKVNVAKLRYMSRDDFRVLTAVEMGMKNHEIVPGSLIASIASLKHGGCNKVLRELVKHKLIAWERTKTVQGYRLTRQVVESVGNQMGVGKESDIYIVANEEGQQFALKLHRLGRTSFRNLKNKRDYHKHRHNVSWLYLSRLSAMKEFAYMKALYERKFPVPKPIDYNRHAVVMELINGYPLCQIHHVEDPASVYDEAMELIVKLANHGLIHGDFNEFNLILDESDHITMIDFPQMVSTSHPNAEWYFDRDVKCIKDFFMKRFSYESELFPTFKDIRREDTLDVEVSASGYTKEMQADDELLHPLGPDDKNIETKEGSEFSFSDGEVAEKAEVYGSENESERNCLEESEGCYCRSSGDPEQIKEDSLSEESADARSFEMTEFNQALEEIKGQVVENNSVTEFSEEKNRTENYNRQDGQRVQGGVPAGSDEYEDECPHLIALSSLNREFRPFRDEENVGAMNQYRTRTLSITSSGSAVSCSTIPPELVKQKVKRQLTKQQKSAVRRRLQKGEANIFTKQRRENMQNIKSSLEAASFWGE
notes: The text defines it as N-terminal HA-tagged RIOK2 with amino acids 77-90 deleted; also called HA-ΔTAD2
In the case of B1, the binding result is reported as “no binding”.
